Tests used:
FaDu cells = assay: In vitro cytotoxicity study (CELLTITER-GLO); type: cell-based, human; details: 72 hours treatment, cell viability, read-out: Relative IC50
Experimental: Human head and neck cancer cell line FaDu was respectively grown in RPMI-1640 medium (ATCC® modification) supplemented with 10% fetal bovine serum. The FaDu cell lines were maintained in an atmosphere of 5% CO2 in a humidified 37° C. incubator. The day before treatment, cells were collected and seeded into 96-well plates (4,000 cells per well). Each treatment was performed in eight triplicate data points. After the treatment of 72 hours, cell viability was assessed by CELLTITER-GLO® kit (PROMEGA®) according to the manufacturer's instruction. At the end of the incubation, luminescence was measured using a SpectraMax i3x Multi Mode Detection Platform (MOLECULAR DEVICES®). Compound cytotoxicity was evaluated in comparison to cells treated with 0.05% PBS (ADCs) or 0.05% DMSO (toxic payload). IC50 values were calculated by fitting viability data with a four-parameter logistic equation using GRAPHPAD® prism 5.0 software.

[1] = test system: FaDu human head and neck cancer xenograft; assay: Xenograft model of anti-NTSR1 ADCs (head and neck cancer); type: in vivo, male NOD SCID mice
Experimental: The aim of this study was to evaluate the in vivo anti-tumor efficacy of αNTSR1 (AKT2) 4seco-DUBA, αNTSR1 (AKT2 Hu/Hu) 4seco-DUBA, and αNTSR1 (AKT2 Hu/Hd) 4seco-DUBA in FaDu human head and neck cancer xenograft model in male NOD SCID mice.
Formulations respectively comprising test article αNTSR1 (AKT2) 4seco-DUBA, test article αNTSR1 (AKT2 Hu/Hu) 4seco-DUBA, test article αNTSR1 (AKT2 Hu/Hd) 4seco-DUBA, and Hu IgG were formulated by diluting the stock with a 25 mM sodium citrate buffer (pH 6.5). […]
The FaDu cells were maintained in vitro as a monolayer culture in RPMI-1640 medium supplemented with 10% fetal bovine serum at 37° C. in an atmosphere of 5% CO2 in air. The tumor cells were routinely sub-cultured twice weekly by trypsin-EDTA treatment. The cells growing in an exponential growth phase were harvested and counted for tumor inoculation.
Male NOD SCID mice at age of 6-7 weeks were quarantined for one week. Five mice were housed in each cage. All animals were hosted in the animal facility with a 12-h light/12-h dark cycle at 19-25° C. Animals had free access to rodent pellet foods and water ad libitum.
FaDu cells were subcutaneously (SC) implanted (4×10^6 cells in 1:1 PBS/matrigel mixture at 0.1 mL per mouse) into the right flank of male NOD SCID mice. When the average tumor volume had reached about 200 mm^3, the mice were randomly divided into 7 groups (N=6 per group). Each of Hu IgG, αNTSR1 (AKT2) 4seco-DUBA (5 mg/kg), αNTSR1 (AKT2 Hu/Hu) 4seco-DUBA (5 mg/kg), and αNTSR1 (AKT2 Hu/Hd) 4seco-DUBA (5 mg/kg) was intravenously administered twice weekly for 3 weeks.
The tumor volumes, body weights, mortality, and signs of overt toxicity were monitored and recorded three times weekly for 28 days. Tumor volumes (mm^3) were measured three times per week using calipers and calculated according to the formula: Tumor Volume=(w^2×l)/2, where w=width and l=length in diameter (mm) of the tumor. The percentages of tumor growth inhibition (TGI) were calculated using the following formula: % TGI=[1−(T/C)]×100%, where T and C represent the mean tumor volumes of the treatment group and the control group, respectively. A TGI (%) value≥58% was considered as indicating significant anti-tumor activity. Animals were weighed three times weekly until the completion of the study.

B1: αNTSR1 (AKT2 Hu/Hd) 4seco-DUBA: antibody-drug conjugate of humanized antibody AKT2 HuHd with seco-DUBA payload (conjugate)
heavy chain: QVQLVQSGAEVKKPGASVKVSCKASGYAFTSSWIHWVRQAPGQGLEWMGQIRPNSGNTYYNEKFKVRVTMTRDTSTSTVYMELSSLRSEDTAVYYCARYHYGFDYWGQGTLVTVSS
light chain: DIQMTQSPSSLSASVGDRVTITCRSSQSIVHSNGNTYLEWYQQKPGKAPKLLIYKVSNRFSGVPSRFSGSGSGTDFTLTISSLQPEDFATYYCFQGAHLPWTFGQGTKVEIK
For B1, the IC50 (FaDu cells) was 55 nM, the “FaDu tumor growth” value ([1]; 5 mg/kg, Day 10 to Day 17) was “significantly reduced FaDu tumor growth” and the “TGI % (1-T/C) Day 0” value ([1]; 5 mpk, IV, BIW × 3, Day 0) was 0.0%. For the same molecule, the “TGI % (1-T/C) Day 3” value ([1]; 5 mpk, IV, BIW × 3, Day 3) was 6.6%, the “TGI % (1-T/C) Day 5” value ([1]; 5 mpk, IV, BIW × 3, Day 5) was 29.8% and the “TGI % (1-T/C) Day 7” value ([1]; 5 mpk, IV, BIW × 3, Day 7) was 56.1%. For the same molecule, the “TGI % (1-T/C) Day 10” value ([1]; 5 mpk, IV, BIW × 3, Day 10) was 60.9%, the “TGI % (1-T/C) Day 12” value ([1]; 5 mpk, IV, BIW × 3, Day 12) was 62.7% and the “TGI % (1-T/C) Day 14” value ([1]; 5 mpk, IV, BIW × 3, Day 14) was 65.2%. The “TGI % (1-T/C) Day 17” value ([1]; 5 mpk, IV, BIW × 3, Day 17) was 76.6%.

Reference: patent US12091454B2, “Humanized anti-human neurotensin receptor 1 antibodies and their uses” (DEVELOPMENT CENTER FOR BIOTECHNOLOGY, priority 2022, dated 2024)
